Data: patent publication EP1657250A1, “HLA-A *01-binding T-cell epitope of WT1” (Charité - Universitätsmedizin Berlin, priority 2004, dated 2006)
Entries after “also recorded” stand apart in the source; their conditions may differ.

Tests used:
constitutive proteasome = molecular target: T1, constitutive proteasome (Homo sapiens, UniProt P28072+P28074+Q99436); test: In vitro proteasome digestion of the precursor peptide, constitutive proteasome; assay type: biochemical; settings: 6 h incubation; Edman sequencing and MALDI-TOF
T1 construct: Proteasomes were isolated from the EBV-transformed B-cell line; endogenous in cells; host or cells: LCL-721.174 (EBV-transformed B-cell line)
Experimental: (§1) Purification of 20S proteasomes, in vitro degradation of WT1.314-336 (SEQ ID NO: 6), and separation and analysis of cleavage products were performed as described (16). 10 nmol (27.6 µg) of WT1.314-336 were incubated for 6 h with 2 µg immunoproteasome or with 2 µg of constitutive proteasome, respectively, in digestion buffer (20 mM Tris-HCI; pH 7.6; 10 mM NaCl; 10 mM KCI; 2 mM MgCl2; 0.5 mM DTT) and the reaction stopped by freezing the reaction mixture at -80°C.
(§2) One crucial prerequisite for a peptide to be presented as a T-cell epitope is its proper excision from the protein. We analyzed in vitro digestion of the […] WT1-derived peptide 314-336 (SEQ ID NO: 6) encompassing the WT1.317-327 epitope […] (SEQ ID NO: 1) by constitutive as well as immunoproteasomes (Fig. 2). Proteasomes were isolated from the EBV-transformed B-cell line LCL-721.174 (constitutive proteasome) and the parental cell line LCL-721 (immunoproteasome, ref. 16) and were used for digestion with a 6-hour incubation period. A combination of Edman sequencing and MALDI-TOF mass spectrometry was subsequently performed to determine the identity and quantity of peptides generated after proteasome digestion. The amount of fragments detected is indicated.

immunoproteasome = molecular target: T2, immunoproteasome (Homo sapiens, UniProt P28062+P28065+P40306); test: In vitro proteasome digestion of the precursor peptide, immunoproteasome; assay type: biochemical; settings: 6 h incubation; Edman sequencing and MALDI-TOF
T2 construct: Proteasomes were isolated from the EBV-transformed B-cell line; endogenous in cells; host or cells: LCL-721 (EBV-transformed B-cell line)
Experimental: as §1, §2

## WT1.314-336: WT1-derived precursor peptide 314-336 encompassing the WT1.317-327 epitope (ASETSEKRPFMCAYPGCNKRYFK)
Constitutive proteasome
  cleavage site C-terminal to Tyr-327 (fragments detected): fragment 328-336 was efficiently generated
  processing of the N-terminus Thr-317: a fragment was found sharing the N-terminus Thr-317 (T)
immunoproteasome
  generation of C-terminal residue Tyr-327 (fragments detected): generated as the major fragment (314-327); also recorded: complementary fragment 328-336 represented the other major fragment
  processing of the N-terminus: No processing of the N-terminus was observed
